Measurements as given in US20250215412A1 (NOVOZYMES A S, published 2025).
Numbering of substitutions follows the chain as printed. In names and notes the source's numbering stands. Read-outs that look alike come from different tables or passages of the source. Blank lines part the entries; values can stand above or below the molecule they belong to.

Experiments:
Assay in all cases: cell-based or functional assay
[1] = target: Chryseobacterium culicis deamidase polypeptide, wildtype, with His-tag (Chryseobacterium culicis)
[2] = target: T1, Chryseobacterium sp-62563 deamidase polypeptide (second polypeptide, deamidase domain), wildtype (Chryseobacterium sp-62563)
T1 sequence: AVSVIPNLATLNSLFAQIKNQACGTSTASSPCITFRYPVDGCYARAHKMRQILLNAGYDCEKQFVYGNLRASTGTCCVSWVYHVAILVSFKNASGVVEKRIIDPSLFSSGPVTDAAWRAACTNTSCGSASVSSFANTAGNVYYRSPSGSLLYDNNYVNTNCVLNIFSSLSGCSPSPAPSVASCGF

[3] = target: T2, Chryseobacterium sp-62563 deamidase C169S (Chryseobacterium sp-62563)
T2 sequence: T1 sequence with C60S

[4] = target: T3, Chryseobacterium sp-62563 deamidase C230H (Chryseobacterium sp-62563)
T3 sequence: T1 sequence with C121H

[5] = target: T4, Chryseobacterium gambrini deamidase polypeptide, wildtype, with His-tag (Chryseobacterium gambrini)
T4 sequence: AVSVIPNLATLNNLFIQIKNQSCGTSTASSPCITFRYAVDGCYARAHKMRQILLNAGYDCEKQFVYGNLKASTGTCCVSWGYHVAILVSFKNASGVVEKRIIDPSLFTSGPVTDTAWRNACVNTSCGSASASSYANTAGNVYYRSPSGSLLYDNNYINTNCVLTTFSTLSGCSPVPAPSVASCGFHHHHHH

[6] = target: T5, Chryseobacterium gambrini deamidase polypeptide, wildtype, with His-tag (Chryseobacterium gambrini)
T5 chain: T4 sequence

[7] = target: T6, Chryseobacterium culicis deamidase polypeptide, wildtype, with His-tag (Chryseobacterium culicis)
T6 chain: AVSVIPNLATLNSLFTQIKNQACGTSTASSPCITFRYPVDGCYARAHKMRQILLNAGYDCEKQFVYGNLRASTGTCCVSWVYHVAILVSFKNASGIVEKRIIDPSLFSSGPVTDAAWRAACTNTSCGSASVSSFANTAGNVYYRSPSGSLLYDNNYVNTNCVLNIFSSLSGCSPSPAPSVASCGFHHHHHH

[8] = target: T7, Chryseobacterium proteolyticum deamidase polypeptide, wildtype, with His-tag (Chryseobacterium proteolyticum) (UniProt Q9AQQ8)
T7 sequence: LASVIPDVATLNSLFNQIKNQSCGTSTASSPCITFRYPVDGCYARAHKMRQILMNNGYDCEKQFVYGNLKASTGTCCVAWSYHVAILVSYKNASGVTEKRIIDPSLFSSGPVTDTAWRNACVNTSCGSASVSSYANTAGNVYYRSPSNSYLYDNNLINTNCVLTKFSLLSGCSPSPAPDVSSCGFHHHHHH

[9] = target: T8, Chryseobacterium proteolyticum deamidase polypeptide, wildtype, with His-tag (Chryseobacterium proteolyticum, UniProt Q9AQQ8 136-320)
T8 sequence: T7 sequence

[10] = target: T9, Chryseobacterium defluvii deamidase polypeptide, wildtype, with His-tag (Chryseobacterium defluvii)
T9 sequence: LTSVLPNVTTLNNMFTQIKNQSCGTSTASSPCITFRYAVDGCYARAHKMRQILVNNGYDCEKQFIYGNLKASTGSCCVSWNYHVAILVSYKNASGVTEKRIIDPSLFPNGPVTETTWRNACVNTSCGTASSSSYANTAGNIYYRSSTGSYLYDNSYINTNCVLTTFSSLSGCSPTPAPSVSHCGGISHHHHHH

[11] = target: T10, Chryseobacterium defluvii deamidase polypeptide, wildtype, with His-tag (Chryseobacterium defluvii)
T10 chain: T9 sequence

Leakage activity [2]: 9%
NanoDSF thermal unfolding temperature [2]: 74.1 ° C.
Relative activity of maturated deamidase (% initial rate) [2]: > 100
Leakage activity [3]: 3%
Relative activity of maturated deamidase (% initial rate) [3]: > 100
Leakage activity [4]: 0%
B1: Chryseobacterium sp-62563 propeptide F99G (protein)
chain: NQDPNLVAKESNETAMKDFGKTVPVGIEKEDGKFKISFMVTAQPYEIKDSKENAAYISMIKTAVENETPIHVFLKANTNEIAKVDKATDDDIRYFKSVGTKEVKEENRK

NanoDSF thermal unfolding temperature [5]: 77.2 ° C.
B2: Chryseobacterium gambrini propeptide I23S (protein)
chain: NQDPNLVVKENNENAMRDFGSTSPVGIQKEGNVLKVSFIISAQFYEIKDSKENEAFISMIKSAIENETPVHVFLKKNSNEIAKVEKATDEDVTYFKSIFTKEVKEENRK

NanoDSF thermal unfolding temperature [5]: 81.1 ° C.
B3: Chryseobacterium gambrini propeptide Y94P (protein)
chain: B2 chain with S23I, Y94P

NanoDSF thermal unfolding temperature [5]: 79.3 ° C.
B4: Chryseobacterium gambrini propeptide Y45T (protein)
chain: B2 chain with S23I, Y45T

NanoDSF thermal unfolding temperature [5]: 78.4 ° C.
B7: Chryseobacterium gambrini propeptide F99K (protein)
chain: B2 chain with S23I, F99K

NanoDSF thermal unfolding temperature [6]: 89.3 ° C.
B8: Chryseobacterium gambrini propeptide, wildtype (other)
chain: B2 chain with S23I

NanoDSF thermal unfolding temperature [5]: 69.3 ° C.
B9: Chryseobacterium gambrini propeptide F99G (protein)
chain: B2 chain with S23I, F99G

NanoDSF thermal unfolding temperature [8]: 80 ° C.
B11: Chryseobacterium proteolyticum propeptide L100A (protein)
chain: NQEINGKEKLSVNDSKLKDFGKTVPVGIDEENGMIKVSFMLTAQFYEIKPTKENEQYIGMLRQAVKNESPVHIFLKPNSNEIGKVESASPEDVRYFKTIATKEVKEENRK

NanoDSF thermal unfolding temperature [9]: 87.3 ° C.
B12: Chryseobacterium proteolyticum propeptide, wildtype (other)
chain: B11 chain with A100L

NanoDSF thermal unfolding temperature [8]: 77.3 ° C.
B13: Chryseobacterium proteolyticum propeptide L100G (protein)
chain: B11 chain with A100G

Further lines, the molecule ahead of its results:

Molecule: Chryseobacterium culicis propeptide Y94P
NanoDSF thermal unfolding temperature [1]: 82.3 ° C.

Molecule: Chryseobacterium culicis propeptide F99K + N100T + E103V + R104K + G105E + D106E + S107N + K108R
Leakage activity [1]: 3%

Molecule: Chryseobacterium culicis propeptide F38C
NanoDSF thermal unfolding temperature [1]: 79.5 ° C.

B5: Chryseobacterium gambrini propeptide F38C (protein)
chain: B2 chain with S23I, F38C
NanoDSF thermal unfolding temperature [5]: 82.3 ° C.

B6: Chryseobacterium gambrini propeptide F99A (protein)
chain: B2 chain with S23I, F99A
NanoDSF thermal unfolding temperature [5]: 70.4 ° C.

B10: Chryseobacterium culicis propeptide, wildtype (other)
chain: NQDPNLVAKESNEIAMKDFGKTVPVGIEKEEGKFKVSFMVSAQPYHIKDSKENAGYISMIRQAVENETPVHIFLKTNTNEIAKVDKPTDDDIRYFKSVFTKEVKEENRK
NanoDSF thermal unfolding temperature [7]: 85.2 ° C.

B14: Chryseobacterium defluvii propeptide Y47T (protein)
chain: ATNQDVVGKENTSNHVAARDFGKTVPVGINEENGTLKVSFILSAQFTEIKPSKENEEYISLIRQAIQNESPIHVFMKLNSNEIVKVEKGTEEDVKYFRSILTKEVKEENRK
NanoDSF thermal unfolding temperature [10]: 80.4 ° C.

B15: Chryseobacterium defluvii propeptide L101A (protein)
chain: B14 chain with T47Y, L101A
NanoDSF thermal unfolding temperature [10]: 82 ° C.

B16: Chryseobacterium defluvii propeptide L101G (protein)
chain: B14 chain with T47Y, L101G
NanoDSF thermal unfolding temperature [10]: 79.8 ° C.

B17: Chryseobacterium defluvii propeptide L101K (protein)
chain: B14 chain with T47Y, L101K
NanoDSF thermal unfolding temperature [10]: 80.5 ° C.

B18: Chryseobacterium defluvii propeptide, wildtype (other)
chain: B14 chain with T47Y
NanoDSF thermal unfolding temperature [11]: 89 ° C.
